According to patent publication US20090269336A1 (TAIWAN LIPOSOME, published 2009):

Key:
[1] = target: T1, recombinant VEGF3-114 (human, UniProt P15692 209-320); assay: cell-based or functional assay
T1 sequence: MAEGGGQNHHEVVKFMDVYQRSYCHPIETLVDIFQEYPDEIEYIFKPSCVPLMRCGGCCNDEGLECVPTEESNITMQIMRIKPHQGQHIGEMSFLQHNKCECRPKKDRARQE

[2] = target: T2, VEGF3-33 (human); assay: Western blot of E. coli lysates
T2 construct: Truncated VEGF fragment expressed in E. coli as a fusion protein detected by anti-penta-His; Tested denatured in cell lysate by Western blot
T2 chain: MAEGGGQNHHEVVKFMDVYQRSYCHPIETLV
Protocol: (§1) To elucidate the binding epitope of VC300 mAb, the VEGF₃₋₁₁₄ (SEQ ID NO: 8) and five VEGF fragments, VEGF₃₋₃₃, VEGF₃₋₆₃, VEGF₃₋₉₃, VEGF₃₋₁₀₀, and VEGF₃₋₁₀₇ (see FIG. 1B), were used in the mapping. Nucleotide sequences of all these constructs were verified by DNA sequencing. Expression profiles of fusion proteins were analyzed by 12.5% SDS-PAGE and Western blot analysis with anti-penta-His monoclonal antibody (Qiagen, Valencia, Calif.). The lysates were used in verification of the binding epitope of VC300 mAb.
(§2) E. coli cells containing various truncated fragments of VEGF cDNA in expression vector were induced to express recombinant proteins with 0.4 mM isopropyl-β-D-thiogalactopyranoside (IPTG, Sigma-Aldrich, St. Louis, Mo.) at 37° C. for 3 h and the cells were harvested by centrifugation at 10,000 rpm for 2 min. The cell pellets were suspended and lysed with protein sample buffer, boiled for 10 min and analyzed by a 12.5% SDS-PAGE. For Western blot analysis, the gels were electroblotted onto PVDF membranes and the membranes were blocked with 5% skim milk in phosphate-buffered saline, pH 7.4 containing 0.05% Tween 20 at RT for 1 h, probed with a 1:1000 dilution of anti-penta-His monoclonal antibody or VC300 mAb followed by reaction with HRP-conjugated goat anti-mouse immunoglobulin (Chemicon Int., Temecula, Calif.). The binding reaction was detected by the addition of the diaminobenzidine (Sigma-Aldrich, St. Louis, Mo.) color development reagent, 0.05% diaminobenzidine, 0.005% hydrogen peroxide in 0.1 M Tris-HCl, pH 7.4.

[3] = target: T3, VEGF3-63 (human, UniProt P15692 209-269); assay: Western blot of E. coli lysates
T3 construct: Truncated VEGF fragment expressed in E. coli as a fusion protein detected by anti-penta-His
T3 sequence: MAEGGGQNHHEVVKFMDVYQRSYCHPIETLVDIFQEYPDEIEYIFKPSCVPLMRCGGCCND
Protocol: as §1, §2

[4] = target: T4, VEGF3-93 (human, UniProt P15692 209-299); assay: Western blot of E. coli lysates
T4 construct: Truncated VEGF fragment expressed in E. coli as a fusion protein detected by anti-penta-His
T4 sequence: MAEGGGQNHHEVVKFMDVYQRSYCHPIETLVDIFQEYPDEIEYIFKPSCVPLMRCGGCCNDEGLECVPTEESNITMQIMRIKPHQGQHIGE
Protocol: as §1, §2

[5] = target: T5, VEGF3-100 (human, UniProt P15692 209-306); assay: Western blot of E. coli lysates
T5 construct: Truncated VEGF fragment expressed in E. coli as a fusion protein detected by anti-penta-His
T5 sequence: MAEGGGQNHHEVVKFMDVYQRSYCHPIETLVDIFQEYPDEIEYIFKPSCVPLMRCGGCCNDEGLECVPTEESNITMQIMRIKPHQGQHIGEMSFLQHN
Protocol: as §1, §2

[6] = target: T1, recombinant VEGF3-114; assay: competitive ELISA: VC300 mAb equilibrated with soluble VEGF3-114, then added to wells coated with VEGF3-114
Protocol: The VC300 mAb was purified from mice ascites by ammonium sulfate precipitation and CM Sepharsoe chromatography (GE Healthcare, Piscataway, N.J.). The purified VC300 mAb was analyzed by 7.5% SDS-PAGE and the protein concentration was quantitated by the absorbance at 280 nm. Isotype determination of VC300 mAb was carried out by a monoclonal antibody isotyping kit I obtained from PIERCE (Rockford, Ill., USA). The dissociation constant (Kd) of antigen-antibody interaction was determined by competitive ELISA [Lin et al., (1997) Anal. Biochem., 254: 9-17]. In brief, the antigen, VEGF₃₋₁₁₄, at various concentrations was incubated with the antibody, VC300 mAb at 4° C. for overnight to reach equilibrium. The mixtures were transferred to the wells coated with 3 μg/ml of VEGF₃₋₁₁₄ and incubated at room temperature for 1 h. […] Absorbance at 450 nm was measured and the Kd value was calculated as described previously.

IC50 of inhibition of VEGF-induced HUVEC proliferation (BrdU incorporation, 13.6 ng/ml VEGF3-114) [1]: ~1 nM
Kd [6]: ~2 nM
B1: VC300 mAb (antibody, IgG1, V domains shown)
VH: EIQLLQSGPELVKPGASVKISCKASGYSFTGYFMNWVMQSHGRTLEWIGRINPYTGETLYNQKFKDKATLTAEISSSTAHMELRSLASDDSAVYFCARRGYAGSGGIYSMDSWGPGTSVTVSS
VL: EIVLTQSPAIMSASLGERVTMTCTASSAVSSSYLHWYHQKPGSSPKLWIFSTSNLASGVPSRFTGSGSGTSYSLTISSVEAEDAATYYCHQYHRSPYTFGAGTKLELN
notes: Mouse hybridoma antibody (BALB/c), purified from mouse ascites; isotype determined to be IgG1; constant regions are not; also called anti-VEGF monoclonal antibody
binding result [2]: no binding (tested: 1:1000 dilution of VC300 mAb)
binding result [3]: no binding (tested: 1:1000 dilution of VC300 mAb)
binding result [4]: no binding (tested: 1:1000 dilution of VC300 mAb)
binding result [5]: no binding (tested: 1:1000 dilution of VC300 mAb)
